# Measurements: the supplement of paper PMC7877785
# ± gives the uncertainty stated by the source.
# Assay: self-splicing fitness, log relative to wild type (ln ratio); higher = more splicing; Tetrahymena group I intron in knt gene, E. coli kanamycin selection, DiMSum; sequences stand for … in CUCUCU…GGAGGGAAAAGUUAUCAGGCAUGCACCUGGUAGCUAGUCUUUAAACCAAUAGAUUGCAUCGGUUUAAAAGGCAAGACCGUCAAAUUGCGGGAAAGGGGUCAACAGCCGUUCAGUACCAAGUCUCAGGGGAAACUUUGAGAUGGCCUUGCAAAGGGUAUGGUAAUAAGCUGACGGACAUGGUCCUAACCACGCAGCCAAGUCCUAAGUCAACAGAUCUUCUGUUGAUAUGGAUGCAGUUCACAGACUAAAUGUCGGUCGGGGAAGAUGUAUUCUUCUCAUAAGAUAUAGUCGGACCUCUCCUUAAUGGGAGCUAGCGGAUGAAGUGAUGCAACACUGGAGCCGCUGGGAACUAAUUUGUAUGCGAAAGUAUAUUGAUUAGUUUUGGAGUACUCGUGGUCG
# Procedure, shortened: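 Pooled colonies went to amplicon sequencing on an Illumina HiSeq 2500 after six replicate transformations. The plates were LB agar with 100 μg/mL carbenicillin, 50 μM IPTG and 0.2% rhamnose, with or without 25 μg/mL kanamycin, incubated overnight at 37°C or 30°C. The E. coli BL21(DE3) library had all eight P1ex-region intron nucleotides randomised, the intron placed in the knt kanamycin-resistance gene on pET-22b(+). DiMSum fitness is the error-weighted combination of replicate fold changes, kanamycin against none, normalised to wild type.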
Sequence,self-splicing fitness (ln) (30 °C),self-splicing fitness (ln) (37 °C)
GUGUAGCAAUAUUACGCUAA,-1.77 ± 0.42,-1.01 ± 0.3
GUGUAGCAAUAUUACGCUUG,-1.07 ± 0.16,-1.57 ± 0.27
GUGUAGCAAUAUUACGGAUU,-2.13 ± 0.087,-1.16 ± 0.11
GUGUAGCAAUAUUACGGCGA,-1.18 ± 0.089,-0.268 ± 0.098
GUGUAGCAAUAUUACGGGCU,-2.88 ± 0.46,-0.129 ± 0.14
GUGUAGCAAUAUUACGGUCC,-1.7 ± 0.23,-0.716 ± 0.25
GUGUAGCAAUAUUACGGUCG,-1.32 ± 0.16,-0.824 ± 0.25
GUGUAGCAAUAUUACGUACC,-1.2 ± 0.29,-0.885 ± 0.37
GUGUAGCAAUAUUACGUACU,-1.52 ± 0.095,-1.19 ± 0.14
GUGUAGCAAUAUUACGUAGG,-2.66 ± 0.18,-1.5 ± 0.18
GUGUAGCAAUAUUACGUGAA,-1.94 ± 0.19,-0.954 ± 0.2
GUGUAGCAAUAUUACGUGAG,-1.23 ± 0.095,-0.931 ± 0.093
GUGUAGCAAUAUUACGUGCU,-1.44 ± 0.11,-1.09 ± 0.13
GUGUAGCAAUAUUACGUUAG,-2.45 ± 0.25,-1.56 ± 0.22
GUUAAGCAAUAUUACGAAGG,-2.17 ± 0.18,-1.87 ± 0.28
GUUAAGCAAUAUUACGACUA,-0.731 ± 0.13,-0.438 ± 0.11
GUUAAGCAAUAUUACGAGCG,-1.54 ± 0.11,-0.685 ± 0.13
GUUAAGCAAUAUUACGCCAU,-2.03 ± 0.27,-1.26 ± 0.3
GUUAAGCAAUAUUACGGCCC,0.0722 ± 0.14,0.517 ± 0.17
GUUAAGCAAUAUUACGGCGA,-0.403 ± 0.096,-0.122 ± 0.11
GUUAAGCAAUAUUACGGGCA,-0.851 ± 0.15,-1.14 ± 0.14
GUUAAGCAAUAUUACGGUAC,-1.7 ± 0.17,-1.33 ± 0.22
GUUAAGCAAUAUUACGUACA,-1.04 ± 0.11,-0.694 ± 0.16
GUUAAGCAAUAUUACGUCGU,-0.93 ± 0.078,-0.441 ± 0.081

Sequence,self-splicing fitness (ln) (30 °C),self-splicing fitness (ln) (37 °C)
GUUAAGCAAUAUUACGUGAC,-1.93 ± 0.24,-2.56 ± 0.37
GUUAAGCAAUAUUACGUUAA,-2.24 ± 0.17,-1.79 ± 0.17
GUUAAGCAAUAUUACGUUAC,-2.36 ± 0.19,-1.33 ± 0.15
GUUAAGCAAUAUUACGUUCA,-0.268 ± 0.09,-0.472 ± 0.11
GUUCAGCAAUAUUACGAAAG,-0.36 ± 0.24,0.462 ± 0.22
GUUCAGCAAUAUUACGAAAU,-0.0391 ± 0.068,0.236 ± 0.12
GUUCAGCAAUAUUACGACAU,-0.0137 ± 0.013,0.437 ± 0.033
GUUCAGCAAUAUUACGACGC,0.0985 ± 0.12,0.651 ± 0.23
GUUCAGCAAUAUUACGCAGC,-3.43 ± 0.29,-1.1 ± 0.2
GUUCAGCAAUAUUACGCGAA,-2.26 ± 0.27,-1.82 ± 0.28
GUUCAGCAAUAUUACGCGCG,-0.45 ± 0.31,-0.279 ± 0.23
GUUCAGCAAUAUUACGCGGG,-2.32 ± 0.14,-0.613 ± 0.1
GUUCAGCAAUAUUACGGAAC,-3.19 ± 0.2,-2.09 ± 0.38
GUUCAGCAAUAUUACGGAGG,-2.38 ± 0.13,-1.22 ± 0.17
GUUCAGCAAUAUUACGGAGU,-1.48 ± 0.12,-0.963 ± 0.15
GUUCAGCAAUAUUACGGGAA,-1.16 ± 0.14,-0.278 ± 0.13
GUUCAGCAAUAUUACGGGAC,-2.39 ± 0.18,-1.16 ± 0.19
GUUCAGCAAUAUUACGGUAU,-0.357 ± 0.062,0.309 ± 0.073
GUUCAGCAAUAUUACGGUUC,-1.66 ± 0.14,0.019 ± 0.18
GUUCAGCAAUAUUACGUCAG,-3.88 ± 0.23,-3.07 ± 0.24
GUUCAGCAAUAUUACGUCUC,-0.362 ± 0.065,0.216 ± 0.083
GUUCAGCAAUAUUACGUGAC,-1.85 ± 0.11,-2.22 ± 0.12
GUUCAGCAAUAUUACGUGUA,-0.88 ± 0.078,-0.647 ± 0.071
